This note sets out measurements from article PMC12218921, “An adaptive peptide-binding site in ubiquitin receptor hRpn13 revealed by structural studies” (Nature Communications, 2025).

The test relates to hRpn13 Pru. Nature of the test: 1H-15N HSQC NMR of 15N-labeled hRpn13 Pru (1–150). The test is classed as binding, human. Particulars: 0.1 mM 15N-labeled protein, 600 MHz, 25 °C, pH 6.5.

B1: hRpn13_ΔMTT: hRpn13 Pru variant with ENT M1 – T3, ^aG, and ^bP deleted (protein)
chain: GSSGALFPSLVPGSRGASNKYLVEFRAGKMSLKGTTVTPDKRKGLVYIQQTDDSLIHFCWKDRTSGNVEDDLIIFPDDCEFKRVPQCPSGRVYVLKFKAGSKRLFFWMQEPKTDQDEEHCRKVNEYLNNPPMPGALGASGSSGHELSAL
modifications: left off: GST, N-terminal, cleaved
notes: hRpn13 Pru variant with ENT M1 – T3, ^aG, and ^bP deleted
In the case of B1, the “HSQC differences of hRpn13_ΔMTT versus hRpn13 (1–150)” value is “changes for a subset of amino acids in the Pru helix and proteasome-binding surface”.
